Drawing on ChEMBL document CHEMBL2074348, “Human neurons express the polyspecific cation transporter hOCT2, which translocates monoamine neurotransmitters, amantadine, and memantine” (Mol Pharmacol, 1998), this text covers IC50 and Km for three molecules.

Data set [1] concerns the target T1, Solute carrier family 22 member 2 (Homo sapiens, UniProt O15244).
T1 sequence (O15244 whole entry): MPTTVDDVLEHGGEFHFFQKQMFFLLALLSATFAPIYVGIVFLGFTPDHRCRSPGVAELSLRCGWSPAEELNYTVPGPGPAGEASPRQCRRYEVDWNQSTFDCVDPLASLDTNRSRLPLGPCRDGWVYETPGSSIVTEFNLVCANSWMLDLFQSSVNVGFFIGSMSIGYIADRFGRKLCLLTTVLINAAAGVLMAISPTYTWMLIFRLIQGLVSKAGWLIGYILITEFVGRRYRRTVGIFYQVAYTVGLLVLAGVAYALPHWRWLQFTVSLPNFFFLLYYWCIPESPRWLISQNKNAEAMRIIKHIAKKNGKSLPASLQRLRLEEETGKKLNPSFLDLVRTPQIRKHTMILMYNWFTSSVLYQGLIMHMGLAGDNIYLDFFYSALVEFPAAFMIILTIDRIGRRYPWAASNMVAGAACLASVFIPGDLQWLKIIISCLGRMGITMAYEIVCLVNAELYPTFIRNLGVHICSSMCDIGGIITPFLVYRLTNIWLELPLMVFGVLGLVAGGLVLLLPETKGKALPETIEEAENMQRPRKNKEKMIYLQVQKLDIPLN
Put plainly: TP_TRANSPORTER: inhibition of Dopamine uptake (Dopamine: 200 uM) in Xenopus laevis oocytes. In kind it is functional, cell-based, Oocyte.

The target of data set [2] is T1, Solute carrier family 22 member 2. Put plainly: TP_TRANSPORTER: uptake in OCT2-expressing HEK293 cells. The data set is classed as functional, cell-based.
Substrate in data set [3]: NC[C@H](O)c1ccc(O)c(O)c1
Put plainly: (§1) TP_TRANSPORTER: uptake in Xenopus laevis oocytes. The data set is classed as functional, cell-based, Oocyte.

Substrate in data set [4]: NCCc1c[nH]c2ccc(O)cc12
The data set is described as §1. In kind it is functional, cell-based, Oocyte.

Substrate in data set [5]: NCCc1c[nH]cn1
Put plainly: cells, lysate or membranes named.

Substrate in data set [6]: NCCc1ccc(O)c(O)c1
The experiment in a line: cells, lysate or membranes named.

Substrate in data set [7]: NC12CC3CC(CC(C3)C1)C2
The experiment in a line: (§2) TP_TRANSPORTER: uptake (electrogenesis) in Xenopus laevis oocytes. The data set is classed as functional, cell-based, Oocyte.

Substrate in data set [8]: CC12CC3CC(C)(C1)CC(N)(C3)C2
Described as §2. In kind it is functional, cell-based, Oocyte.

“And” between values parts separate entries of the source, which are not always exact repeats. Equal entries are not always repeated.

One may read the IC50 as the midpoint of a concentration-inhibition curve. A higher IC50 goes with weaker potency. As usually defined, the Km is the substrate concentration at which the rate is half of its maximum.

For the molecule `NC12CC3CC(CC(C3)C1)C2` [AMANTADINE], the midpoint of inhibition in data set [1], the IC50, lay at 23 µM.

As to `C[n+]1ccc(-c2ccccc2)cc1`, the Km in data set [2] amounted to 16 µM.

B1: Solute carrier family 22 member 2 (Homo sapiens) (protein)
chain: MPTTVDDVLEHGGEFHFFQKQMFFLLALLSATFAPIYVGIVFLGFTPDHRCRSPGVAELSLRCGWSPAEELNYTVPGPGPAGEASPRQCRRYEVDWNQSTFDCVDPLASLDTNRSRLPLGPCRDGWVYETPGSSIVTEFNLVCANSWMLDLFQSSVNVGFFIGSMSIGYIADRFGRKLCLLTTVLINAAAGVLMAISPTYTWMLIFRLIQGLVSKAGWLIGYILITEFVGRRYRRTVGIFYQVAYTVGLLVLAGVAYALPHWRWLQFTVSLPNFFFLLYYWCIPESPRWLISQNKNAEAMRIIKHIAKKNGKSLPASLQRLRLEEETGKKLNPSFLDLVRTPQIRKHTMILMYNWFTSSVLYQGLIMHMGLAGDNIYLDFFYSALVEFPAAFMIILTIDRIGRRYPWAASNMVAGAACLASVFIPGDLQWLKIIISCLGRMGITMAYEIVCLVNAELYPTFIRNLGVHICSSMCDIGGIITPFLVYRLTNIWLELPLMVFGVLGLVAGGLVLLLPETKGKALPETIEEAENMQRPRKNKEKMIYLQVQKLDIPLN
As to B1, the Km in data set [3] was 1900 µM; in data set [4], 80 µM; in data set [5], 1300 µM; in data set [6], 330 µM and 390 µM and 520 µM; in data set [7] it was 27 µM; in data set [8] it was 34 µM.
